As a reminder, the Ki is a dissociation constant, usually derived from enzyme kinetics or from competition with a known ligand. Usually Kd stands for the constant that tells how readily two partners part at equilibrium.

Data set [1] deals with T1, thrombin (IIa), active (UniProt P00734;P00734 P00734:328-363,P00734:364-622). The experiment in a line: inhibition; inhibition of coagulation.
Data set [2] concerns the target T2, alpha-thrombin (active site blocked with fluorescein-PPACK) (Homo sapiens, UniProt P00734;P00734 P00734:328-363,P00734:364-622). Put plainly: fluorometric titration; duplicate measurement gave 99 nM; 20 mM Tris, 150 mM NaCl, pH 7.4.
Data set [3] has as its target T1, thrombin (IIa), active. Put plainly: inhibition; kD in the hydrolysis of Chromozym-thrombin.
In data set [4] the target is T2, alpha-thrombin (active site blocked …). Put plainly: fluorometric titration; duplicate measurement gave 110 nM; 20 mM Tris, 150 mM NaCl, pH 7.4.
The target is the same in data set [5]. Put plainly: fluorometric titration, 492/522 nm, 100 nM thrombin, 20 mM Tris, 150 mM NaCl, pH 7.4; exosite 1.
The target is the same in data set [6]. The experiment in a line: fluorometric titration, 20 mM Tris, 150 mM NaCl, pH 7.4; exosite 2.
The target is the same in data set [7]. Put plainly: fluorometric titration, 20 mM Tris, 150 mM NaCl, pH 7.4; exosite 1.

B1: ODN 1f (ssDNA)
DNA: GGTTGGTGTGGTTGG
modifications: 3'-biotin-streptavidin
On to B1, for which the Ki in data set [1] was approximately 100 nM. In data set [2], this molecule showed a Kd of 41 nM.

B2: ODN 2f (ssDNA)
DNA: AGTCCGTGGTAGGGCAGGTTGGGGTGACT
modifications: 3'-biotin-streptavidin
With B2, the Kd amounted to 10.2 nM in data set [3] and 89 nM in data set [4].

B3: ODN 1a (ssDNA)
DNA: GGTTGGTGTGGTTGG
B3 returned a Kd in data set [5] of 45 nM.

B4: ODN 2a (ssDNA)
DNA: AGTCCGTGGTAGGGCAGGTTGGGGTGACT
B4 came in with a Kd in data set [6] of 16.5 nM.

B5: ODN 2e (ssDNA)
DNA: AGTCCGTGGTAGGGCAGGTTGGGGTGACT
modifications: 3'-biotin (biotin TEG)
B5 registered a Kd in data set [6] of 85 nM.

B6: ODN 1e (ssDNA)
DNA: GGTTGGTGTGGTTGG
modifications: 3'-biotin (biotin TEG)
In the case of B6, binding in data set [7] was put at a Kd of 55 nM.

(Values after patent publication US6780850.)
